Positions count from the first letter of the chain named.
Key:
Assay in all cases: bead flow cytometry, AUC minus CD4
[1] = target: T1, HCoV-NL63 spike protein (Sino Biological 40604-V08B) (HCoV-NL63, UniProt Q6Q1S2 19-1296)
T1 sequence: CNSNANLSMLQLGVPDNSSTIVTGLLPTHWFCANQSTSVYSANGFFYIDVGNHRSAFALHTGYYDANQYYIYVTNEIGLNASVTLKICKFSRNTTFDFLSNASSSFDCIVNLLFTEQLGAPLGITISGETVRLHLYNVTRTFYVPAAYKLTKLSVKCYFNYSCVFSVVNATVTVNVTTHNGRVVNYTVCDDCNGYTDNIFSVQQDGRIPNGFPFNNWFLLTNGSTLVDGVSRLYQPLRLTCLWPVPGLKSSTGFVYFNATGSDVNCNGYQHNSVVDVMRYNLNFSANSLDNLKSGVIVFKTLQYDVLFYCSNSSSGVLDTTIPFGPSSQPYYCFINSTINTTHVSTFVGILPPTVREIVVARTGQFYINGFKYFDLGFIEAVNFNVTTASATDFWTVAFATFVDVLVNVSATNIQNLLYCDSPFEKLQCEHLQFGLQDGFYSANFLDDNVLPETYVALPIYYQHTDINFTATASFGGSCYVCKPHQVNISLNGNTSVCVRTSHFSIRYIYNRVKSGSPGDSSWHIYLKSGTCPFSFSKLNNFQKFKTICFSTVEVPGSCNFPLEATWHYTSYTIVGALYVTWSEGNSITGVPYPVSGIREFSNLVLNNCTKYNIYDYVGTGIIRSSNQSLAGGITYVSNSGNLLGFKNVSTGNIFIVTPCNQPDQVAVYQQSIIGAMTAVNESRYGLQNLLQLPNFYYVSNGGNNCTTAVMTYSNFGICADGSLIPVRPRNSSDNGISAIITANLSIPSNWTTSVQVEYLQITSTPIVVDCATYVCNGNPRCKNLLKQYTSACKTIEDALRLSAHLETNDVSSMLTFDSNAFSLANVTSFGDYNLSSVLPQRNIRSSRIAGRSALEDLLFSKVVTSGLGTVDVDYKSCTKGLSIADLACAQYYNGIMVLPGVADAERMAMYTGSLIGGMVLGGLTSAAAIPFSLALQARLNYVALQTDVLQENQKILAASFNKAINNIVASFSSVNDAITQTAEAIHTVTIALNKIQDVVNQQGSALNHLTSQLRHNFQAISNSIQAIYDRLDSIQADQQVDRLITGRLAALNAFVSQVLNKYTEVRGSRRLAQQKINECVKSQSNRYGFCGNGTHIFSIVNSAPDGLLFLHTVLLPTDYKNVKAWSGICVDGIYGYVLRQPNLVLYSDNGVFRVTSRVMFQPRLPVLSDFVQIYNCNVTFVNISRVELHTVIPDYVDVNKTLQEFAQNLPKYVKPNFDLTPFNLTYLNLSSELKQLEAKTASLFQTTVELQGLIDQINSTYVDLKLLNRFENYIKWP

[2] = target: T2, HCoV-229E spike protein (Sino Biological 40605-V08B) (HCoV-229E, UniProt P15423 16-1115)
T2 sequence: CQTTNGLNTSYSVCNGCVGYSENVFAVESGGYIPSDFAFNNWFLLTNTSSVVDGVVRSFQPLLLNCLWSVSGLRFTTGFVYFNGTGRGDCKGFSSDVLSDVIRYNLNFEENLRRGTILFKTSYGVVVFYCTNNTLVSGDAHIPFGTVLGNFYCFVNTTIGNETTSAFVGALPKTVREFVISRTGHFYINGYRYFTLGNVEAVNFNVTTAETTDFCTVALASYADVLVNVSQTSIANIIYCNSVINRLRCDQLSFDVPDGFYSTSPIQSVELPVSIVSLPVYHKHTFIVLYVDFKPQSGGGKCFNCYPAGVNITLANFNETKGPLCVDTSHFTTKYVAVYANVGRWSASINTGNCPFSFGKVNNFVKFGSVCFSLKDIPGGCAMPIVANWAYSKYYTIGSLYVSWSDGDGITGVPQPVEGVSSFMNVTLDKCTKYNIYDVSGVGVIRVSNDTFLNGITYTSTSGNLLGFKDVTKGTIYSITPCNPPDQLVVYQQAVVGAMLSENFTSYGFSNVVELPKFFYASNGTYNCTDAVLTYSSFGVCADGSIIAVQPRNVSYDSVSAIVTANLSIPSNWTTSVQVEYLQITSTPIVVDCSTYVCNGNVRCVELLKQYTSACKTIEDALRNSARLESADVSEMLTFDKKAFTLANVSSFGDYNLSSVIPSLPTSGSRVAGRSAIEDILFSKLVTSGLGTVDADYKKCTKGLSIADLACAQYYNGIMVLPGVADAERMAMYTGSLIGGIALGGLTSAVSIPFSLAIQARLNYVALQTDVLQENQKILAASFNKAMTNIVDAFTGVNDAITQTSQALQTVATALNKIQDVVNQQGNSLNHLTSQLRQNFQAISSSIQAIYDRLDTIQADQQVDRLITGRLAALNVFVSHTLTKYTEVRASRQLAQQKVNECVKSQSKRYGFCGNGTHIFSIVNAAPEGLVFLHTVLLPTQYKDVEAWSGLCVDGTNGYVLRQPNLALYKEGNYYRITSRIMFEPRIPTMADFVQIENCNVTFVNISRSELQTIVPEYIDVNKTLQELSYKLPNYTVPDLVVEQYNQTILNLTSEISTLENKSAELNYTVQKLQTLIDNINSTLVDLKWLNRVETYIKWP

[3] = target: SARS-CoV-2 spike receptor binding domain (RBD), recombinant (SARS-CoV-2, UniProt P0DTC2 319-541)
[4] = target: SARS-CoV-2 spike N-terminal domain (NTD), recombinant (SARS-CoV-2, UniProt P0DTC2 14-305)

Measured: binding result

B1: COV77-76 (antibody, V domains shown)
VH: QVQLQESGPGLVKPSETLSLTCTVSGGSISSFYWSWIRQPPGKRLEWIGYIYYRGSTNYNPSLKSRVTMSVDTSKNQFSLKLSSVTAADTAVYYCARELPNNWLDPWGQGTLVTVSS
VL: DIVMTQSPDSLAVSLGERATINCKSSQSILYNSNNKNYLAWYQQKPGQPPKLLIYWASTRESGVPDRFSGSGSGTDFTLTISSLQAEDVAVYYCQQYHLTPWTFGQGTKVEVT
no binding (tested: 200 µg/mL): all assays above

B2: COV77-43 (antibody, V domains shown)
VH: QVQLVESGGGVVQPGRSLRLSCSASGFTFSDYGMNWVRQAPGKGLEWVAMIWYDGSNYFYRDSVKGRFAISRDNSKNMVFLQMDNLRAEDTAVYFCARGTHFWSGLSLDAFDMWGQGTVVTVSS
VL: EIVMTQSPLSLPVTPGEPASISCRSSRSLLHYNGHNYLDWYLQKPGQSPQLLIYLGSNRAPGVPDRFSGSGSGTDFTLKISRVEAEDVGVYYCMQALQLNLITFGQGTRLEIK
no binding (tested: 200 µg/mL): all assays above

B3: COV77-46 (antibody, V domains shown)
VH: QVQLQESGPGLVKPSQPLSLTCAVSGDSISSGGNYWSWIRQHPGKGLECIAYFYYTGRTYYNPSLKSRVTISLDTSKNQFSLKVSSVTAADTAVYFCARGRLGHCGGGSCFLDPLDYWGQGSLVTVSS
VL: EIVMTQSPATLSVSPGERATLSCRASERISSNLAWSQHKVGQAPRLLIYGASTRATGIPARFSGSGSGTEFTLTISSLQSEDFAVYYCHQYHNWLLTFGGGTKVEIK
no binding (tested: 200 µg/mL): all assays above

B4: COV57-45 (antibody, V domains shown)
VH: QVQLVQSGTEVKKPGSSVKVSCRASGGTLSSYSVSWVRQAPGQGLEWMGRIIPILDKKTYAQKYQGRVTILADTSTSTVYMELSSLKSDDSAVYFCTTFDYDTSGQRDQHDYWGQGTPVTVSS
VL: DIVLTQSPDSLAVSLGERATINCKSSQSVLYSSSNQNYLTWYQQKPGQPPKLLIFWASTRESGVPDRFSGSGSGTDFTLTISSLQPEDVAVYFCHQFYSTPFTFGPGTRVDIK
no binding (tested: 200 µg/mL): all assays above

B5: COV77-35 (antibody, V domains shown)
VH: QMQLQESGPGLVKPSQTLSLTCAVSGGSISSDGYYWNWVRQHPGKGLELIAYIYYNGRPYYNPSLRSRVNISLDTSMNQFSLRVKSLTAADTAVYYCARGRLGYCAAGSCFLDSFDYWGQGALVTVSS
VL: EIVMTQYPATLSVSPGETATLSCRASESISRNLAWYQQKPGQAPRLLIYGASTRATGIPARFSGSGSGTEFALTISSLQAEDFAVYSCQQYHNWLLTFGGGTKVEIK
no binding (tested: 200 µg/mL): all assays above

B6: COV77-14 (antibody, V domains shown)
VH: QVQLQESGPGLVKASQTLSLTCAVSGGSISSGDYYWTWIRSHPGKGLEWIAYIYYNGRTYYNPSLKSRLTISIDRSKNEFSLKVRSVTAADSAAYYCARGRLGFCAAGSCFLDSLDFWGQGTLVTVSS
VL: B5 VL with Y7S, T18R, A19V, R31N, T74I, A80S, S87F, H92Y
no binding (tested: 200 µg/mL): all assays above

B7: COV57-05 (antibody, V domains shown)
VH: QVQLLESGPGLVKPSGTLSLTCDVSGDSISSSNWWSWVRQSPGKGLEWIGEIYQSGTTNNNPSLKSRVTISIDKSKNQFSLNLTSVTAADTAVYYCARAPLVFRSYGMDVWGQGTTVTVSS
VL: DIQMTQSPSSLSASVGDRVTITCRASQTIRTYLNWYQQKPGKAPKLLIYDASNLQSGVPSRFSGSGSGTDFTLTISSLEPEDFATYYCQQSYITPPWTFGQGTRVEIK
no binding (tested: 200 µg/mL): all assays above

B8: COV93-60 (antibody, V domains shown)
VH: QVQLQESGPGLVKPSETLFLTCAVSGGSINSSYWSWIRQPPGKGLEWIGYIYYRGSTNYNPSLKSRVTISVDTSKNQFSLKLNSVTAADTAIYYCARENLWNWFDPWGQGILVTVSS
VL: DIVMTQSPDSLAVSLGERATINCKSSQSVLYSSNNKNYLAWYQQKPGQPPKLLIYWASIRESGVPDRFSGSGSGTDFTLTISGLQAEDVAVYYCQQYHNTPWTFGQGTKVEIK
no binding (tested: 200 µg/mL): all assays above

B9: COV93-61 (antibody, V domains shown)
VH: EVQLVQSGAEVKKPGESLKISCKGSGYSFTTFWIGWVRQMPGKGLEWVGVIYPDDSDTRYSPSFQGQVTMSADKSINTAYLQWSSLKASDTAVYYCARRNCDAALCYLGTYDYWGQGTVVTVSS
VL: QSALTQPPSASGSPGQSVTISCTGTISDVGRYDFVSWYQHHPGKAPKLIIYEVTKRPSGVPDRFSGSKSGNTASLTVSGLQAEDEADYYCNSYAGHNNFVIFGGGTKLTVL
no binding (tested: 200 µg/mL): all assays above

Reference: patent US20250145690A1 (US Dept. of Health and Human Services, published 2025)
